Earlier results on 2 substances are cited in article PMC8645602.

Like-named read-outs stand apart in the source and are kept apart here.

Data set [1] concerns the target Tyr9 (UniProt position 9, KPKLHYFNGRG). The note with it: not stated (the article does not say whether the enzyme was free or glutathione-bound).
Data set [2] addresses Tyr9 (UniProt position 9, KPKLHYFNARG).

Consider “Glutathione transferase A3-3 (HsaGST A3-3) (Homo sapiens)”, for which, in data set [1], the pKa (commonly the pH at which an ionisable group is half protonated) was 7.9.
On to “Glutathione transferase A1-1 (HsaGST A1-1) (Homo sapiens)”, for which the pKa is given as 8.1 in data set [2] (free enzyme (no glutathione)) and 9.2 in data set [2] (glutathione bound).
